Test results reported in the supplement of paper PMC10065799, “High-throughput profiling of sequence recognition by tyrosine kinases and SH2 domains using bacterial peptide display” (eLife, 2023).

Experiments:
c-Src = assay: phosphorylation enrichment, bacterial display (enrichment ratio); higher = better substrate or ligand; peptides without Tyr show the background
Fyn = Fyn (UniProt P06241); assay: as above
FGFR1 = FGFR1 (UniProt P11362); assay: as above
Fer (mouse) = assay: as above
MERTK = MERTK (UniProt Q12866); assay: as above
Jak2 = Jak2 (UniProt O60674); assay: as above
EPHB2 = EPHB2 (UniProt P29323); assay: as above
AncSZ = assay: as above
Fes = Fes (UniProt P07332); assay: as above
c-Abl (mouse) = assay: as above
FGFR3 = FGFR3 (UniProt P22607); assay: as above
EPHB1 = EPHB1 (UniProt P54762); assay: as above
Hck = Hck (UniProt P08631); assay: as above
c-Src SH2 = assay: SH2 binding enrichment of the phosphorylated peptide, bacterial display (enrichment ratio); higher = better substrate or ligand; peptides without Tyr show the background
Grb2 SH2 = Grb2 SH2 (UniProt P62993); assay: as above
SHP2-C SH2 = assay: as above
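For SH2 binding enrichment of the phosphorylated peptide, bacterial display in this document: peptide library displayed on the E. coli surface as eCPX fusions, selected cells deep-sequenced, score is each peptide's frequency after selection divided by its frequency in the input.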
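For phosphorylation enrichment, bacterial display in this document: 11-residue human phosphosite peptides and single-mutation variants displayed on the E. coli surface, counted by deep sequencing, each peptide's frequency after selection divided by its frequency in the unselected input library; frequency after pTyr selection over input frequency; kinase dosed for 20-30% of maximal phosphorylation in three min.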

Fes, sequence (P07332 whole entry, looked up): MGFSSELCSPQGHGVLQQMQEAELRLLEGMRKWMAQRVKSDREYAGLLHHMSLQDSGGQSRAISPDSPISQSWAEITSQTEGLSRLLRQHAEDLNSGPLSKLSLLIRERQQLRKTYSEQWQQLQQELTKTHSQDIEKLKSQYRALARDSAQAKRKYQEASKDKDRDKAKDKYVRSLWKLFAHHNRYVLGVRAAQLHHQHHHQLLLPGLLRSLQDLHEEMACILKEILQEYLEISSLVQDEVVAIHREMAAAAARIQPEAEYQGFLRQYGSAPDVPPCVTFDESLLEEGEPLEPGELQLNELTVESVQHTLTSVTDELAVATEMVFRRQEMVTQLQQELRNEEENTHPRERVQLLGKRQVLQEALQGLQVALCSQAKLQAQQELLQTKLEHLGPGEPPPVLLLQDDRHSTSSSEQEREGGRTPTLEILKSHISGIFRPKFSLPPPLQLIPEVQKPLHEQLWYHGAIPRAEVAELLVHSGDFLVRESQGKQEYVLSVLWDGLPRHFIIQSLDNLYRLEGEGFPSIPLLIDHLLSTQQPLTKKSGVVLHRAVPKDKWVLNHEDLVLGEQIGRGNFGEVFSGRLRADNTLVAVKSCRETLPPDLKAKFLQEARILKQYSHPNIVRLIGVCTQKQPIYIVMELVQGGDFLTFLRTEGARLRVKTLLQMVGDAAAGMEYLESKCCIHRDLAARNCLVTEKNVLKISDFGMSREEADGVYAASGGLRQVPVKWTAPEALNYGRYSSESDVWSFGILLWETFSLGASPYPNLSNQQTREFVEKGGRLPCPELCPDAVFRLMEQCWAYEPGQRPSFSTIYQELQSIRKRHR
FGFR3, sequence (P22607 whole entry, looked up): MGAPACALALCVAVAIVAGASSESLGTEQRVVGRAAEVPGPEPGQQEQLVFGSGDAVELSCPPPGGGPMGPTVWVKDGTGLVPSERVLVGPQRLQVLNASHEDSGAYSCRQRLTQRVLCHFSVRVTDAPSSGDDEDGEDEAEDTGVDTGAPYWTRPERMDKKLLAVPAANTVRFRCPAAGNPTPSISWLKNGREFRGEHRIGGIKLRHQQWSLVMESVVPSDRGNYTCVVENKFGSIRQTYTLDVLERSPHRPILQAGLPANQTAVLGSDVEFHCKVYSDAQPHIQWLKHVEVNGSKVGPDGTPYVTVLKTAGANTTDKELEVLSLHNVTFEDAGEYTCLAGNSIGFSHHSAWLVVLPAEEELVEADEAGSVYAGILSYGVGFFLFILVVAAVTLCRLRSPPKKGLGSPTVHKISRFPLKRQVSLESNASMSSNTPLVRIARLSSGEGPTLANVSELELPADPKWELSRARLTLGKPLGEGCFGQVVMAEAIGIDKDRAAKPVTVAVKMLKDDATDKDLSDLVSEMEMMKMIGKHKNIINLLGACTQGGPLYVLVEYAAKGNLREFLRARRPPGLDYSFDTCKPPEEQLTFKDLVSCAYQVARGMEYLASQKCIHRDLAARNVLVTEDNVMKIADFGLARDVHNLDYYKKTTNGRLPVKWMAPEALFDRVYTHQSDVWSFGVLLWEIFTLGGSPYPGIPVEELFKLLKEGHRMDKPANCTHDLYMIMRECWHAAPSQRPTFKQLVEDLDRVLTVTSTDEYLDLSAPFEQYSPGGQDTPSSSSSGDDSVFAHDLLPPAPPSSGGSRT
Jak2, sequence (O60674 whole entry, looked up): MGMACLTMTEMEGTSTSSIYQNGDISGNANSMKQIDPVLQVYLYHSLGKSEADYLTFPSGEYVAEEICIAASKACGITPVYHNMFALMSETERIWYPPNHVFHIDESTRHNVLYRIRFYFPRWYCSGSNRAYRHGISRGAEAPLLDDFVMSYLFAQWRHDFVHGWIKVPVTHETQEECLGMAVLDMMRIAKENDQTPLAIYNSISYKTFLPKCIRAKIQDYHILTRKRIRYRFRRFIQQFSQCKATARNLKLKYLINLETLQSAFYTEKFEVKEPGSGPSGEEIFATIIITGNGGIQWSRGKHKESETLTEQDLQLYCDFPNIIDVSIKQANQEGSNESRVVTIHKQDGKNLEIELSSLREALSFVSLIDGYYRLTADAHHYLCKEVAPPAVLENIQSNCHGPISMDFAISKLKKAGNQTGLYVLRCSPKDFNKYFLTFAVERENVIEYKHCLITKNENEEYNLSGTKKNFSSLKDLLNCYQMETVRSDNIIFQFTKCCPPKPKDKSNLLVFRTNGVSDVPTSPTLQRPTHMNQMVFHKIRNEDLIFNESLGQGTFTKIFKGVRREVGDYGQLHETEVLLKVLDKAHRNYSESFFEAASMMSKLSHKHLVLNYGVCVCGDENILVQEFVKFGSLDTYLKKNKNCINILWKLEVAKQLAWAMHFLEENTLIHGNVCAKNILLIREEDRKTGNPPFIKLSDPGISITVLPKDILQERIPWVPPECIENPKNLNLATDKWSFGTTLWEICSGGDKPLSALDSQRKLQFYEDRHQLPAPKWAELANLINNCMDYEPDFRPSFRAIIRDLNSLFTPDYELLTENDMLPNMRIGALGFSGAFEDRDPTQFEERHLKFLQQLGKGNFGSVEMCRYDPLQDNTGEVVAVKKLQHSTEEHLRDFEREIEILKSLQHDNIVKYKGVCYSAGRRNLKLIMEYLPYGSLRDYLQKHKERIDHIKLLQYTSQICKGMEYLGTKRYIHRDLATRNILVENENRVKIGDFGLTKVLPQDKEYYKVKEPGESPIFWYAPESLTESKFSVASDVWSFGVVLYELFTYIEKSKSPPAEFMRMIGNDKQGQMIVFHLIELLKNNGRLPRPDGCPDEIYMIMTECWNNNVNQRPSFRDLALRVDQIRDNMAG
Fyn, sequence (P06241 whole entry, looked up): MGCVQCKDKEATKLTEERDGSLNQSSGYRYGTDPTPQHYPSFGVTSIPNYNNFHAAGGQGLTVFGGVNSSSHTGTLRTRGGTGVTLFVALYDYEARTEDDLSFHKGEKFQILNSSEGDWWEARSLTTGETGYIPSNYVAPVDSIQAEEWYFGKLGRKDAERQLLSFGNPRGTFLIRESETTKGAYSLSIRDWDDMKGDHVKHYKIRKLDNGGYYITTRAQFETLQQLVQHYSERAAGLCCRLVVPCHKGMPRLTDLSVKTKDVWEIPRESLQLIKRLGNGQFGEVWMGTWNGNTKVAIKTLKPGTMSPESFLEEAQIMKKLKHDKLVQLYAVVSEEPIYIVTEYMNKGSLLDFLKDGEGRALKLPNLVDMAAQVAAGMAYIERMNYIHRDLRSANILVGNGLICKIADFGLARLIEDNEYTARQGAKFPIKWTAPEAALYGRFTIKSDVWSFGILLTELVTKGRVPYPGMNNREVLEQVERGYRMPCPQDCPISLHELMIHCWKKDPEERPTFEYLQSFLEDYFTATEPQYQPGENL
Hck, sequence (P08631 whole entry, looked up): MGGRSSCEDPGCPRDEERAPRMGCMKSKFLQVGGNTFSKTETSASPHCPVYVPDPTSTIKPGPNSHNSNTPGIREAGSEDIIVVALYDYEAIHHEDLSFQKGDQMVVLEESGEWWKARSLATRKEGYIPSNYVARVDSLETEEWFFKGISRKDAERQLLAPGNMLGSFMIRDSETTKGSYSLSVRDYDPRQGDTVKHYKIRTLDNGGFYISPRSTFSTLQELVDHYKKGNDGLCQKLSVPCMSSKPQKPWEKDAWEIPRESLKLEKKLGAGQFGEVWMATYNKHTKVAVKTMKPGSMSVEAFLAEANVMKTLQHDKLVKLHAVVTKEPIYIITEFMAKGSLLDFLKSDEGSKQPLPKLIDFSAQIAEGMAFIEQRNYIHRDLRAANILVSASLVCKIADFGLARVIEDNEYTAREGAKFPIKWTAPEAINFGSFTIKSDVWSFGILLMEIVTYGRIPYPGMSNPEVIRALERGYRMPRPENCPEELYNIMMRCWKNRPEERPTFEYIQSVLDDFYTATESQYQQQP
EPHB1, sequence (P54762 whole entry, looked up): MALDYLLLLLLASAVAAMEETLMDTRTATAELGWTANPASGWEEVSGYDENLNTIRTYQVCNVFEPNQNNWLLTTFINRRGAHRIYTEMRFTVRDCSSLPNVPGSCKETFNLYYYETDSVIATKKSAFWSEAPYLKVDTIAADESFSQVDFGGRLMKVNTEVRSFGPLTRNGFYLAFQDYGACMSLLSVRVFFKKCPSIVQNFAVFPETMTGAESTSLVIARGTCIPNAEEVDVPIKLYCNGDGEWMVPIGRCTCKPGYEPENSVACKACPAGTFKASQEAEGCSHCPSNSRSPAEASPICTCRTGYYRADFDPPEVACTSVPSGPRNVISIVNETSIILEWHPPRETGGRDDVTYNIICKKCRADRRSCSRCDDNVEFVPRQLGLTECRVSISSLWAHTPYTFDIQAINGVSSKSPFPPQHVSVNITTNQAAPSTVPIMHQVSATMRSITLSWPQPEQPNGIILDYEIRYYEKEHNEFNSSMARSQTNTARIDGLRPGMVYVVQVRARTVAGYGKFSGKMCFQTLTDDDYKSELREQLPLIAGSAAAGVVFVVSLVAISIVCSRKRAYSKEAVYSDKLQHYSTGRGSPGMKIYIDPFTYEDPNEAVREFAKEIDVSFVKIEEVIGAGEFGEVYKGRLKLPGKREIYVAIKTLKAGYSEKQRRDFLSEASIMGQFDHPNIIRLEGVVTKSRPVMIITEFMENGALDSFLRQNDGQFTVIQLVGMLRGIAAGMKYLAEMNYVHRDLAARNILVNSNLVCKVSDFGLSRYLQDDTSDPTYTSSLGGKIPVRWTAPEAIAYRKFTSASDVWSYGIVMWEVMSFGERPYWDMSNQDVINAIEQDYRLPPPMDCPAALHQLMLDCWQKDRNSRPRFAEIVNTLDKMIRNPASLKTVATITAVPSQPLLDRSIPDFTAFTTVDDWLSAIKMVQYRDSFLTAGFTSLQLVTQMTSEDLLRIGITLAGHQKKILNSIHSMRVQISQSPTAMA

Sequence	SH2 binding enrichment (c-Src SH2)	SH2 binding enrichment (Grb2 SH2)	SH2 binding enrichment (SHP2-C SH2)	phosphorylation enrichment (c-Src)	phosphorylation enrichment (Fyn)	phosphorylation enrichment (FGFR1)	phosphorylation enrichment (Fer (mouse))	phosphorylation enrichment (MERTK)	phosphorylation enrichment (Jak2)	phosphorylation enrichment (EPHB2)	phosphorylation enrichment (AncSZ)	phosphorylation enrichment (Fes)	phosphorylation enrichment (c-Abl (mouse))	phosphorylation enrichment (FGFR3)	phosphorylation enrichment (EPHB1)	phosphorylation enrichment (Hck)
SYVVRYNQPRV [GRIN2D_Y736_M733V]	1.31	1.05	1.09	0.405	0.433	0.452	0.419	0.375	0.725	0.478	0.843	0.891	0.717	0.588	0.478	0.475
TARREYMHSPS [CPOX_Y429_W427R]	0.647	0.859	0.647	0.432	0.63	0.349	0.396	0.43	0.468	0.449	0.489	0.656	0.507	0.355	0.345	0.471
TCFDKYTGSTY [FN1_Y101_N104S]	0.51	0.997	0.691	0.5	0.469	0.556	0.418	0.399	0.747	0.556	0.843	0.737	0.579	0.534	0.442	0.652
TDKLFYIYTSG [SLC27A4_Y243]	0.443	0.677	1.75	0.542	0.48	0.565	0.517	0.589	1.48	0.682	1.5	1.94	1.18	0.811	0.701	0.522
TEQDPYNNIVR [MMUT_Y364]	1.28	0.857	0.649	0.581	0.545	0.466	0.45	0.451	0.881	0.499	1.01	0.978	0.582	0.601	0.5	0.555
TIMTDYNPNYC [ALK_Y1092]	0.663	1.11	0.654	0.552	0.439	0.715	0.548	0.6	1.24	0.531	1.33	1.26	0.923	0.904	0.999	0.66
TLNVRHESVQA [CEACAM7_Y236_Y236H]	0.579	0.978	0.714	0.466	0.378	0.451	0.374	0.348	0.831	0.44	0.564	0.59	0.415	0.39	0.38	0.366
TLSGIYQFIIA [FOXL2_Y81_YF]	1.24	1.49	1.13	5.96	6.83	10.4	15	10.1	1.2	9.15	1.81	3.16	2.71	7.18	14.2	8.44
TNGFTYGSSHQ [MANEA_Y331]	0.434	0.74	0.493	0.404	0.492	0.525	0.514	0.441	0.413	0.31	0.566	0.576	0.412	0.39	0.444	0.443
TNYSLYLRSLE [MTM1_Y71_R69S]	0.669	1.01	12.1	0.42	0.423	0.456	0.555	0.602	1.29	0.671	0.952	1.15	0.574	0.659	0.722	0.601
TQNGVYSAANY [DDX5_Y535]	0.838	0.842	0.536	6.11	7.45	0.454	1.87	4.8	0.5	1.85	0.69	0.699	1.04	0.514	1.26	8.68
TQPSPYAVFRF [RPGRIP1_Y823_YF]	0.696	1	1.1	7.72	10.7	0.893	9.31	9.69	0.824	0.922	0.952	0.805	24.8	0.8	2.6	8.6
TRDVNYGWIIR [MT-CYB_Y75]	0.55	1.22	1.28	0.423	0.475	0.344	0.443	0.756	0.949	0.91	0.997	0.999	0.595	0.654	0.542	0.422
TRDVNYGWTIR [MT-CYB_Y75_I78T]	0.515	1.29	1.02	0.492	0.441	0.46	0.588	0.495	0.834	0.648	1.39	0.969	0.534	0.636	0.544	0.478
TRFDEYLEVTK [MAP1A_Y2217_H2214Y_YF]	0.528	0.814	0.78	0.444	0.571	0.949	0.501	0.819	1.25	0.723	1.32	1.22	0.731	0.823	0.789	0.619
TSESSYYKSLN [NGEF_Y288_A286S]	0.65	0.892	0.64	0.518	0.469	0.64	0.482	0.564	0.771	0.668	0.76	0.817	0.499	0.651	0.55	0.496
TSSAIYMNLAS [GATAD2B_Y317]	1.4	4.48	1.46	6.07	6.11	3	3.71	8.39	0.997	3.51	0.949	1.01	3.29	1.94	8.76	6.95
TSSGGYRRTPS [ABI1_Y333]	0.66	0.826	0.56	0.419	0.433	0.386	0.473	0.467	0.473	0.532	0.499	0.499	0.486	0.428	0.355	0.409
TSSSSYFDEPV [ARFGAP3_Y356]	0.569	0.762	0.827	0.47	0.478	0.486	0.506	0.421	0.98	0.576	1.1	1.01	0.841	0.749	0.549	0.5
TTGGFYSFGGG [KRT24_Y120_A115T_YF]	0.418	0.654	0.618	1.67	4.22	0.46	1.55	8.96	0.604	0.442	0.623	0.847	0.585	0.446	0.766	1.57
TTGLIYIGSHD [AASDH_Y870]	0.624	1.04	0.69	0.408	0.375	0.445	0.424	0.323	0.715	0.565	0.726	0.759	0.488	0.79	0.686	0.46
TTKAKYKTPIY [PLD2_Y573_T577I]	0.793	0.908	0.775	0.541	0.771	0.46	0.459	0.574	0.587	0.46	0.823	0.928	0.695	0.596	0.542	0.789
TTKAKYKTPTY [PLD2_Y573]	0.541	0.906	0.848	0.406	0.393	0.287	0.336	0.362	0.488	0.313	0.473	0.501	0.539	0.32	0.328	0.443

Now from value to sequence, other results behind:

SH2 binding enrichment (c-Src SH2)	SH2 binding enrichment (Grb2 SH2)	SH2 binding enrichment (SHP2-C SH2)	Sequence	phosphorylation enrichment (c-Src)	phosphorylation enrichment (Fyn)	phosphorylation enrichment (FGFR1)	phosphorylation enrichment (Fer (mouse))	phosphorylation enrichment (MERTK)	phosphorylation enrichment (Jak2)	phosphorylation enrichment (EPHB2)	phosphorylation enrichment (AncSZ)	phosphorylation enrichment (Fes)	phosphorylation enrichment (c-Abl (mouse))	phosphorylation enrichment (FGFR3)	phosphorylation enrichment (EPHB1)	phosphorylation enrichment (Hck)
0.471	0.89	0.856	SVTCTYSPDLN [TP53_Y126_A129D]	0.563	0.502	0.533	0.629	0.437	1.31	0.71	1.5	1.71	0.915	0.985	0.757	0.583
0.537	0.78	0.732	SVTCTYSSALN [TP53_Y126_P128S]	0.64	0.6	0.483	0.534	0.458	0.909	0.576	1	1	0.728	0.726	0.601	0.689
0.581	0.956	0.902	SVVVPHEPPEV [TP53_Y220_Y220H]	0.396	0.466	0.53	0.538	0.41	0.755	0.46	0.763	0.949	0.703	0.696	0.51	0.46
1.33	1.05	0.639	SWVVPYEPPEV [TP53_Y220_V216W]	0.411	0.463	0.599	0.577	0.39	0.957	0.631	1.44	1.23	0.851	0.861	0.553	0.542
0.529	0.765	0.709	TGDFGYRTPGF [TNS2_Y668_A670T_YF]	0.413	0.457	0.438	0.399	0.429	0.526	0.419	0.523	0.632	0.706	0.517	0.48	0.401
1.6	0.911	0.712	TGDRPYVCPFD [YY1_Y383]	0.456	0.509	0.59	0.431	0.481	0.653	0.46	1.04	0.932	0.706	0.635	0.474	0.464
3.11	0.81	1.06	TGEKPYECVQC [ZNF24_Y335]	0.501	0.515	0.501	1.87	0.509	0.664	0.507	0.755	0.7	0.519	0.531	0.514	0.521
0.495	0.726	0.65	THEVRYISAGQ [SLCO4A1_Y77_V78I]	0.418	0.391	0.361	0.379	0.408	0.669	0.396	0.683	0.705	0.838	0.53	0.426	0.416
0.495	0.771	0.927	THEVRYVSAGQ [SLCO4A1_Y77]	0.366	0.398	0.416	0.47	0.368	0.632	0.368	0.733	0.773	0.485	0.45	0.393	0.374
1.65	0.88	0.608	TRTEAYAVSSF	0.353	0.399	0.373	0.328	0.406	0.587	0.378	0.58	0.816	0.476	0.396	0.442	0.359
